Test [1] addresses T1, HAdV-C5 hexon (Human adenovirus C serotype 5, UniProt P04133).
T1 construct: the top phase containing soluble viral components was recovered, and HAdV hexons were purified using monoclonal hexon antibodies; made in house; host or cells: A549 cells infected with wild-type HAdV-C5 (strain Ad75)
The experiment in a line: Surface plasmon resonance, HAdV-C5 hexon immobilized. It counts as binding. As to the method:
(§1) Ten flasks of 70% confluent A549 cells were infected with HAdV-C5, HAdV-A31, or HAdV-B35. After initial inoculation, unbound virus was washed away, and approximately 30 ml of fresh medium (DMEM plus 20 mM HEPES [N-2-hydroxyethylpiperazine-NN-2-ethanesulfonic acid] plus 5% FBS) was added. At 48 h after infection, the cells were harvested by scraping into a small volume of DMEM, centrifuged, and resuspended in 6 ml of DMEM. The collected cells were lysed and the sample cleared by centrifugation. Virus was separated from soluble viral components by a CsCl gradient, as described previously ([59]). After ultracentrifugation, the top phase containing soluble viral components was recovered, and HAdV hexons were purified using monoclonal hexon antibodies (MAB8052) covalently attached to magnetic protein A/G beads (Pierce) using dimethyl pimelimidate (DMP) according to the manufacturer’s instructions. Bound hexons were washed three times using PBS to remove protein bound unspecifically, followed by elution in 50 μl of 200 mM glycine buffer at pH 2.5.
(§2) CM5 sensor chips, an amine-coupling kit, and HBS-EP+ buffer (10 mM HEPES, 150 mM NaCl, 3 mM EDTA, and 0.005% [vol/vol] surfactant P20 [pH 7.4]) were all purchased from GE Healthcare. All surface plasmon resonance (SPR) experiments were performed at 25°C in HBS-EP+ running buffer with adenovirus hexons immobilized on the sensor surface. In addition, all experiments were performed with the same batch of LF/Lfcin. Data were collected with a Biacore T200 instrument at a rate of 1 Hz. HAdV hexons were coupled to the CM5 sensor chip by amine coupling reactions according to the manufacturer’s instructions, aiming for an immobilization density of 900 to 1,100 resonance units (RU). The surface of the upstream flow cell was used as a reference and was subjected to the same coupling reaction in the absence of protein. The analytes were serially diluted in running buffer to prepare a 2-fold concentration series ranging from 8 nM to 2 μM and then injected in series over reference and experimental biosensor surfaces for 120 sec at a flow rate of 30 μl/min. Blank samples containing only running buffer were also injected under the same conditions to allow for double referencing. After each cycle, the biosensor surface was regenerated with a 60-sec pulse of 10 mM Tris-glycine (pH 1.5) at a flow rate of 30 μl/min.
Background: SPR reads the build-up and loss of mass on a sensor chip optically.

For test [2], the system named is human respiratory epithelial A549 cells (HAdV-C5_GFP). Briefly: HAdV-C5_GFP transduction of A549 cells. It counts as cell-based. The text has this: For all transduction experiments, GFP-expressing vectors were used. The HAdV_GFP vector was purchased from Vector Development Laboratory. All mutated HAdV-C5 vectors were generated in the laboratory of A. Plückthun at the University of Zürich using the AdEasy system (Agilent) to contain an internal ribosome entry site (IRES)-luciferase (Luc)-GFP cassette for detection of transduction. To investigate the role of integrins in transduction, HAdV-C5-IRES-GFP with an intact RGD loop in the penton base protein (-DMNDHAIRGDTFATRAE-) and HAdV-C5-ΔRGD-IRES-GFP (-DMNDTSRAEEKRAE-), known not to bind integrins ([40]), were generated. To determine the binding site for hLF/hLfcin on the hexon protein, hexon-mutated vectors were produced with HVR-1 of HAdV-C5 ([43]) replaced with the corresponding sequence of HAdV-A31, as well as a HAdV-C5 vector mutated in HVR-7 ([44]).
For experiments in A549 cells, 15,000 cells were seeded into a black 96-well plate with a transparent bottom. For experiments with CHO-K1 cells, 20,000 cells were seeded. After 24 h, HAdV-C5 vectors was complexed with 2 μM Lfcin or with ∼12 μM (1 mg/ml) of LF and, after 60 min, added to the cells on ice. The blocking of CAR using soluble HAdV-C5 fiber knob was performed using 10 μg/ml of recombinant knob. After another 60 min, unbound complex was washed away using Dulbecco’s modified Eagle’s medium (DMEM), followed by final addition of fresh medium. After 44 h, the cells were fixed using 4% paraformaldehyde (PFA) for 10 min, and GFP expression was imaged using a Trophos system (Luminy Biotech Entreprises). For the hexon chimeric viruses, transduction was instead quantified by measuring the luciferase activity at 44 h postinfection using a Pierce luciferase glow assay kit.

Test [3] addresses HAdV-A31 hexon. The experiment in a line: Surface plasmon resonance, HAdV-A31 hexon immobilized. It counts as binding. The conditions noted are these: analyte hLF, HBS-EP+ pH 7.4, 25°C, average from three independent measurements. As to the method: as §1
CM5 sensor chips, an amine-coupling kit, and HBS-EP+ buffer (10 mM HEPES, 150 mM NaCl, 3 mM EDTA, and 0.005% [vol/vol] surfactant P20 [pH 7.4]) were all purchased from GE Healthcare. All surface plasmon resonance (SPR) experiments were performed at 25°C in HBS-EP+ running buffer with adenovirus hexons immobilized on the sensor surface. In addition, all experiments were performed with the same batch of LF/Lfcin. Data were collected with a Biacore T200 instrument at a rate of 1 Hz. HAdV hexons were coupled to the CM5 sensor chip by amine coupling reactions according to the manufacturer’s instructions, aiming for an immobilization density of 900 to 1,100 resonance units (RU). The surface of the upstream flow cell was used as a reference and was subjected to the same coupling reaction in the absence of protein. […]

For test [4], the system named is epithelial and T cells (species C HAdVs). The conditions noted are these: ref [15], cited from earlier work. The text has this:
This is surprising, as hLF usually exerts antimicrobial functions ([22][–][24]), as well as preventing virus attachment to target cells and/or inhibiting virus replication ([25][–][27]). hLF is produced largely by neutrophils, but also by primary epithelial cells, and it is naturally present in a vast majority of body fluids in concentrations of up to several mg/ml, where it protects epithelia from pathogens ([28][–][31]). […] In this study, we investigated the molecular mechanisms behind hLF-dependent infection. As a first step, we investigated the structural features whereby hLF mediates HAdV-C5 infection of human respiratory A549 cells. In total, we used three different types of lactoferrin, namely, hLF purified from human tear fluid (present in several mg/ml), a recombinant form of hLF produced in Aspergillus with a human amino acid backbone but with a high-mannose glycosylation pattern ... || Utilization of hLF/hLfcin by species C HAdVs could also account for the frequent and persistent infections of species C HAdVs in tonsil T lymphocytes in young children ([56]). […] Taken together, our results highlight the ingenuity of HAdVs and explain how they may ensure efficient infection in a very hos ...

In test [5] the target is HAdV-B35 hexon. The experiment in a line: Surface plasmon resonance, HAdV-B35 hexon immobilized. It counts as binding. As to the method: as §1, §2
Where [6] appears, read: association rate constant, analyte hLF, SPR, HBS-EP+ pH 7.4, 25°C, average from three independent measurements.
Where [7] appears, read: dissociation rate constant, analyte hLF, SPR, HBS-EP+ pH 7.4, 25°C, average from three independent measurements.

Entries after “also recorded” stand apart in the source; their conditions may differ.

In general, Kd refers to the concentration at which binding is half-saturated.

T1 sequence (P04133 2-952 limits assumed): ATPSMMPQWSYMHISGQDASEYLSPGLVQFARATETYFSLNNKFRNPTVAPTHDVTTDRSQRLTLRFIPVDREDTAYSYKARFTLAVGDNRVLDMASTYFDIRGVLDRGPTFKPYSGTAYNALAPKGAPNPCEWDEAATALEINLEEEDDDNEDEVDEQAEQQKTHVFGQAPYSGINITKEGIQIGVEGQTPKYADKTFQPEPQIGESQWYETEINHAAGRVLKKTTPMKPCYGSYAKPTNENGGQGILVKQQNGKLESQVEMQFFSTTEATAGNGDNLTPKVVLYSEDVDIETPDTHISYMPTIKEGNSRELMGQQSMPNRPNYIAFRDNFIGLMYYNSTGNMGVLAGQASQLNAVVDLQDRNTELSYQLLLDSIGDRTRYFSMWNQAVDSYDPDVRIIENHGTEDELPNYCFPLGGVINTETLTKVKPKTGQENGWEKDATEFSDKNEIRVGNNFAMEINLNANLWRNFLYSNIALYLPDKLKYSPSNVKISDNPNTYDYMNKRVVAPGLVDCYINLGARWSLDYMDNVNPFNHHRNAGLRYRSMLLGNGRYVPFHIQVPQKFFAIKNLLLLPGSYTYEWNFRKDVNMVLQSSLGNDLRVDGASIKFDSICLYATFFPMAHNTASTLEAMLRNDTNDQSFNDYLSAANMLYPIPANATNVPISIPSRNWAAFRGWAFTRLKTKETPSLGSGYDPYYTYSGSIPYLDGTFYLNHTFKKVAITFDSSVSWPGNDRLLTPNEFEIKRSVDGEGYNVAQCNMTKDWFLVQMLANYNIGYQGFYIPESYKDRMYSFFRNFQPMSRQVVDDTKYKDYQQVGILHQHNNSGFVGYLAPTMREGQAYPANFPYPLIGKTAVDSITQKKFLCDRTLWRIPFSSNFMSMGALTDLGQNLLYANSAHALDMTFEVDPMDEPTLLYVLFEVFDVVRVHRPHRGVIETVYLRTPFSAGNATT

B1: human lactoferrin (protein, UniProt P02788 20-710, looked up)
Lactotransferrin: GRRRSVQWCAVSQPEATKCFQWQRNMRKVRGPPVSCIKRDSPIQCIQAIAENRADAVTLDGGFIYEAGLAPYKLRPVAAEVYGTERQPRTHYYAVAVVKKGGSFQLNELQGLKSCHTGLRRTAGWNVPIGTLRPFLNWTGPPEPIEAAVARFFSASCVPGADKGQFPNLCRLCAGTGENKCAFSSQEPYFSYSGAFKCLRDGAGDVAFIRESTVFEDLSDEAERDEYELLCPDNTRKPVDKFKDCHLARVPSHAVVARSVNGKEDAIWNLLRQAQEKFGKDKSPKFQLFGSPSGQKDLLFKDSAIGFSRVPPRIDSGLYLGSGYFTAIQNLRKSEEEVAARRARVVWCAVGEQELRKCNQWSGLSEGSVTCSSASTTEDCIALVLKGEADAMSLDGGYVYTAGKCGLVPVLAENYKSQQSSDPDPNCVDRPVEGYLAVAVVRRSDTSLTWNSVKGKKSCHTAVDRTAGWNIPMGLLFNQTGSCKFDEYFSQSCAPGSDPRSNLCALCIGDEQGENKCVPNSNERYYGYTGAFRCLAENAGDVAFVKDVTVLQNTDGNNNEAWAKDLKLADFALLCLDGKRKPVTEARSCHLAMAPNHAVVSRMDKVERLKQVLLHQQAKFGRNGSDCPDKFCLFQSETKNLLFNDNTECLARLHGKTTYEKYLGPQYVAGITNLKKCSTSPLLEACEFLRK
notes: Human LF purified from human tear fluid by size exclusion chromatography
Turning to B1, the Kd in test [1] (SPR Biacore T200, HAdV-C5 hexon amine-coupled on CM5 chip (900 to 1,100 RU), analyte hLF, 2-fold series 8 nM to 2 μM, HBS-EP+ pH 7.4, 25°C, average from three independent measurements) was found to be 29 ± 3.6 nM; in test [3] (SPR Biacore T200, HAdV-A31 hexon on CM5 chip, 2-fold series 8 nM to 2 μM), 827 ± 55 nM; in test [5] (SPR Biacore T200, HAdV-B35 hexon on CM5 chip, analyte hLF, 2-fold series 8 nM to 2 μM, HBS-EP+ pH 7.4, 25°C, average from three independent measurements), 151 ± 14 nM. In addition, the “affinity ratio, HAdV-C5 hexon stronger than HAdV-B35 hexon” value in test [1] (SPR, 25°C, pH 7.4, HAdV-C5 versus HAdV-B35 hexon) is “about 5 fold”. The ka in test [1] (setting [6]) stood at 53000 ± 2600 M⁻¹ s⁻¹; in test [3] (association rate constant, SPR), 12000 ± 1100 M⁻¹ s⁻¹; in test [5] (setting [6]), 25000 ± 2500 M⁻¹ s⁻¹. Also, the kd in test [1] (setting [7]) came out at 0.00154 ± 0.00024 s⁻¹; in test [3] (dissociation rate constant, SPR) it was 0.01011 ± 0.00024 s⁻¹; in test [5] (setting [7]), 0.00354 ± 0.00014 s⁻¹. Besides, the “increase of HAdV-C5_GFP transduction of A549 cells by LF” value in test [2] (LF 1 mg/ml preincubated with HAdV-C5_GFP, GFP imaging after 44 h, mean from 3 to 5 independent experiments (Fig. 1A)) is 4 fold. Moreover, the “prevention of transduction at high concentration” value in test [2] (high, nonphysiological concentrations, data not shown, cell line not stated, also ref [15]) is “able to prevent transduction”. In addition, the “effect on HAdV-C5 infection of CAR-negative T cells” value in test [4] (CAR-negative T cells) is given as “facilitates HAdV-C5 infection”. The “effect on species C HAdV infection” value in test [4] is “efficiently increases species C HAdV infection; also recorded: all species C HAdVs infect epithelial and T cells more efficiently”. For the same molecule, the “affinity ratio, HAdV-B35 hexon stronger than HAdV-A31 hexon” value in test [5] (SPR, 25°C, pH 7.4, HAdV-B35 versus HAdV-A31 hexon) came to 5 fold.

B2: rhLF: recombinant hLF produced in Aspergillus awamori, human amino acid backbone, high-mannose glycosylation pattern (protein, UniProt P02788 20-710, looked up)
Lactotransferrin: GRRRSVQWCAVSQPEATKCFQWQRNMRKVRGPPVSCIKRDSPIQCIQAIAENRADAVTLDGGFIYEAGLAPYKLRPVAAEVYGTERQPRTHYYAVAVVKKGGSFQLNELQGLKSCHTGLRRTAGWNVPIGTLRPFLNWTGPPEPIEAAVARFFSASCVPGADKGQFPNLCRLCAGTGENKCAFSSQEPYFSYSGAFKCLRDGAGDVAFIRESTVFEDLSDEAERDEYELLCPDNTRKPVDKFKDCHLARVPSHAVVARSVNGKEDAIWNLLRQAQEKFGKDKSPKFQLFGSPSGQKDLLFKDSAIGFSRVPPRIDSGLYLGSGYFTAIQNLRKSEEEVAARRARVVWCAVGEQELRKCNQWSGLSEGSVTCSSASTTEDCIALVLKGEADAMSLDGGYVYTAGKCGLVPVLAENYKSQQSSDPDPNCVDRPVEGYLAVAVVRRSDTSLTWNSVKGKKSCHTAVDRTAGWNIPMGLLFNQTGSCKFDEYFSQSCAPGSDPRSNLCALCIGDEQGENKCVPNSNERYYGYTGAFRCLAENAGDVAFVKDVTVLQNTDGNNNEAWAKDLKLADFALLCLDGKRKPVTEARSCHLAMAPNHAVVSRMDKVERLKQVLLHQQAKFGRNGSDCPDKFCLFQSETKNLLFNDNTECLARLHGKTTYEKYLGPQYVAGITNLKKCSTSPLLEACEFLRK
modifications: recombinant, expressed in Aspergillus awamori
Regarding B2, the “effect of LF on HAdV-C5_GFP transduction of A549 cells (in words)” value in test [2] (LF 1 mg/ml preincubated with HAdV-C5_GFP, GFP imaging after 44 h (Fig. 1A)) is recorded as “Neither bLF nor rhLF affected HAdV-C5_GFP transduction”.

The values above are taken from article PMC7343212, “Lactoferrin-Hexon Interactions Mediate CAR-Independent Adenovirus Infection of Human Respiratory Cells” (Journal of Virology, 2020).
